Source: patent US20230242902A1, “A HIGHLY ERROR-PRONE […] R[…] FOR TARGETED CONTINUOUS EVOLUTION IN VIVO” (The Regents of the University of California, priority 2017, published 2023)

System: p1
Test: p1 copy number by p1-encoded mKate2 fluorescence
Assay type: cell-based, S. cerevisiae
Details: OR-Y24, measured in triplicate
How it was run: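 Copy number was inferred from p1-encoded mKate2 fluorescence in saturated OR-Y24 cultures (triplicate), calibrated linearly against qPCR of p1 leu2 relative to genomic LEU3.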

| Molecule | Mean fold-increase over w.t. (p1 copy number) [fold] |
| --- | --- |
| E703H: TP-DNAP1 variant (protein) MDYKDKALNDLRNVYADFDSLPLDFRQILIKDRATLLQKEDVEKKILERQEDAKKYAEYLKQSEIPERISLPNIKRHKGVSISFEETSEDMVLEPRPFIFDGLNIRCFRRETIFSLKNKILNMVKESSSFKNVSRQSVSFMYFKIFNKGKVIASTKSVNIYEDKIDERLEDLCNNFDDVLKKIIDVTYGYESLFVSETYSYVIFYAKSIYFPQPRCVNNWGNNIPNILTFDSFKLFTANKNNVSCIKQCSRFLWQKDFNTLEEMIEYKNGNICIVTPQLHINDVRDIKSFNDIRLYSESPIKTFSVIDNTITYLFYFKEHLGVIFNITKSRHDRRVTKFSPLSKFSDVKNITVCFDIESYFDPEKESNQVNIPFICCASIIYNKVIGNIVDFEGRDCVAQMIEYVVDICGELNISSVELIAHNGGGYDFHYILSSMYNPAAIKNILIRNNSFISFNFAHDGVKFSVKDSYSFLLCSLANASKAFLNEETFKKTDFPHHDLKTADDLYKVYKEWSSVNTEINHVVEKEKLLITSEHIVNFTKNDKSKTLIEWSKDYCRNDVLVLSKVWLEFKNAVEDIFNCELVDQTMTLAGLSYKLFQANMPFDVELRHPNKEDYFNMREALIGGRCISVNGIYKDVLCLDVKSLYPASMAFYDQPYGSFKRVSSRPKDELGIYYVRVTPNRNNKSNFFPIRSHNKITYNNFHESTYIAWYTNVDIDIGLSEGHNIEYIPFDSYGNIGYSWSKKGKIFEKYIKDVLYKLKIKYEKQNNKVKRNVIKIIMNSLWGKFAQKWVNFEYFIKSEDDIDFESEEAYKIWDTDFMLIKKIKESTYSSKPIQNGVFTLSWARYHMKSIWDAGAKEGAECIYSDTDSIFVHKEHFKKNAKFMLNGLKVPIIGSEVGQLELECEFDKLLCAGKKQYMGFYTYFQDGKPCIKEKKRFKGIPSNYIIPELYAHLLSGADKEAKIQFLKFRREWGSVKGYIENKTVKAT | 1.53 |
| E704D: TP-DNAP1 variant (protein) MDYKDKALNDLRNVYADFDSLPLDFRQILIKDRATLLQKEDVEKKILERQEDAKKYAEYLKQSEIPERISLPNIKRHKGVSISFEETSEDMVLEPRPFIFDGLNIRCFRRETIFSLKNKILNMVKESSSFKNVSRQSVSFMYFKIFNKGKVIASTKSVNIYEDKIDERLEDLCNNFDDVLKKIIDVTYGYESLFVSETYSYVIFYAKSIYFPQPRCVNNWGNNIPNILTFDSFKLFTANKNNVSCIKQCSRFLWQKDFNTLEEMIEYKNGNICIVTPQLHINDVRDIKSFNDIRLYSESPIKTFSVIDNTITYLFYFKEHLGVIFNITKSRHDRRVTKFSPLSKFSDVKNITVCFDIESYFDPEKESNQVNIPFICCASIIYNKVIGNIVDFEGRDCVAQMIEYVVDICGELNISSVELIAHNGGGYDFHYILSSMYNPAAIKNILIRNNSFISFNFAHDGVKFSVKDSYSFLLCSLANASKAFLNEETFKKTDFPHHDLKTADDLYKVYKEWSSVNTEINHVVEKEKLLITSEHIVNFTKNDKSKTLIEWSKDYCRNDVLVLSKVWLEFKNAVEDIFNCELVDQTMTLAGLSYKLFQANMPFDVELRHPNKEDYFNMREALIGGRCISVNGIYKDVLCLDVKSLYPASMAFYDQPYGSFKRVSSRPKDELGIYYVRVTPNRNNKSNFFPIRSHNKITYNNFEDSTYIAWYTNVDIDIGLSEGHNIEYIPFDSYGNIGYSWSKKGKIFEKYIKDVLYKLKIKYEKQNNKVKRNVIKIIMNSLWGKFAQKWVNFEYFIKSEDDIDFESEEAYKIWDTDFMLIKKIKESTYSSKPIQNGVFTLSWARYHMKSIWDAGAKEGAECIYSDTDSIFVHKEHFKKNAKFMLNGLKVPIIGSEVGQLELECEFDKLLCAGKKQYMGFYTYFQDGKPCIKEKKRFKGIPSNYIIPELYAHLLSGADKEAKIQFLKFRREWGSVKGYIENKTVKAT | 1.89 |
| E704N: TP-DNAP1 variant (protein) MDYKDKALNDLRNVYADFDSLPLDFRQILIKDRATLLQKEDVEKKILERQEDAKKYAEYLKQSEIPERISLPNIKRHKGVSISFEETSEDMVLEPRPFIFDGLNIRCFRRETIFSLKNKILNMVKESSSFKNVSRQSVSFMYFKIFNKGKVIASTKSVNIYEDKIDERLEDLCNNFDDVLKKIIDVTYGYESLFVSETYSYVIFYAKSIYFPQPRCVNNWGNNIPNILTFDSFKLFTANKNNVSCIKQCSRFLWQKDFNTLEEMIEYKNGNICIVTPQLHINDVRDIKSFNDIRLYSESPIKTFSVIDNTITYLFYFKEHLGVIFNITKSRHDRRVTKFSPLSKFSDVKNITVCFDIESYFDPEKESNQVNIPFICCASIIYNKVIGNIVDFEGRDCVAQMIEYVVDICGELNISSVELIAHNGGGYDFHYILSSMYNPAAIKNILIRNNSFISFNFAHDGVKFSVKDSYSFLLCSLANASKAFLNEETFKKTDFPHHDLKTADDLYKVYKEWSSVNTEINHVVEKEKLLITSEHIVNFTKNDKSKTLIEWSKDYCRNDVLVLSKVWLEFKNAVEDIFNCELVDQTMTLAGLSYKLFQANMPFDVELRHPNKEDYFNMREALIGGRCISVNGIYKDVLCLDVKSLYPASMAFYDQPYGSFKRVSSRPKDELGIYYVRVTPNRNNKSNFFPIRSHNKITYNNFENSTYIAWYTNVDIDIGLSEGHNIEYIPFDSYGNIGYSWSKKGKIFEKYIKDVLYKLKIKYEKQNNKVKRNVIKIIMNSLWGKFAQKWVNFEYFIKSEDDIDFESEEAYKIWDTDFMLIKKIKESTYSSKPIQNGVFTLSWARYHMKSIWDAGAKEGAECIYSDTDSIFVHKEHFKKNAKFMLNGLKVPIIGSEVGQLELECEFDKLLCAGKKQYMGFYTYFQDGKPCIKEKKRFKGIPSNYIIPELYAHLLSGADKEAKIQFLKFRREWGSVKGYIENKTVKAT | 1.85 |
| E703W: TP-DNAP1 variant (protein) MDYKDKALNDLRNVYADFDSLPLDFRQILIKDRATLLQKEDVEKKILERQEDAKKYAEYLKQSEIPERISLPNIKRHKGVSISFEETSEDMVLEPRPFIFDGLNIRCFRRETIFSLKNKILNMVKESSSFKNVSRQSVSFMYFKIFNKGKVIASTKSVNIYEDKIDERLEDLCNNFDDVLKKIIDVTYGYESLFVSETYSYVIFYAKSIYFPQPRCVNNWGNNIPNILTFDSFKLFTANKNNVSCIKQCSRFLWQKDFNTLEEMIEYKNGNICIVTPQLHINDVRDIKSFNDIRLYSESPIKTFSVIDNTITYLFYFKEHLGVIFNITKSRHDRRVTKFSPLSKFSDVKNITVCFDIESYFDPEKESNQVNIPFICCASIIYNKVIGNIVDFEGRDCVAQMIEYVVDICGELNISSVELIAHNGGGYDFHYILSSMYNPAAIKNILIRNNSFISFNFAHDGVKFSVKDSYSFLLCSLANASKAFLNEETFKKTDFPHHDLKTADDLYKVYKEWSSVNTEINHVVEKEKLLITSEHIVNFTKNDKSKTLIEWSKDYCRNDVLVLSKVWLEFKNAVEDIFNCELVDQTMTLAGLSYKLFQANMPFDVELRHPNKEDYFNMREALIGGRCISVNGIYKDVLCLDVKSLYPASMAFYDQPYGSFKRVSSRPKDELGIYYVRVTPNRNNKSNFFPIRSHNKITYNNFWESTYIAWYTNVDIDIGLSEGHNIEYIPFDSYGNIGYSWSKKGKIFEKYIKDVLYKLKIKYEKQNNKVKRNVIKIIMNSLWGKFAQKWVNFEYFIKSEDDIDFESEEAYKIWDTDFMLIKKIKESTYSSKPIQNGVFTLSWARYHMKSIWDAGAKEGAECIYSDTDSIFVHKEHFKKNAKFMLNGLKVPIIGSEVGQLELECEFDKLLCAGKKQYMGFYTYFQDGKPCIKEKKRFKGIPSNYIIPELYAHLLSGADKEAKIQFLKFRREWGSVKGYIENKTVKAT | 1.72 |
